From PMC11435836 (Vaccines, 2024) come the findings set out here.

This series deals with the molecule itself. Description: SEC; Superose 6 Increase 10/300 GL; single ENC particles eluted at 11-12 mL, highly aggregated particles at 8-9 mL. (Size exclusion chromatography separates by hydrodynamic size, large species first.)

B1: encapsulin (ENC) from Thermotoga maritima (natural protein, UniProt Q9WZP2 1-264, looked up)
chain: MEFLKRSFAPLTEKQWQEIDNRAREIFKTQLYGRKFVDVEGPYGWEYAAHPLGEVEVLSDENEVVKWGLRKSLPLIELRATFTLDLWELDNLERGKPNVDLSSLEETVRKVAEFEDEVIFRGCEKSGVKGLLSFEERKIECGSTPKDLLEAIVRALSIFSKDGIEGPYTLVINTDRWINFLKEEAGHYPLEKRVEECLRGGKIITTPRIEDALVVSERGGDFKLILGQDLSIGYEDREKDAVRLFITETFTFQVVNPEALILLK
notes: also called ENC NPs; ENC PNPs; copies: 60
On to B1, for which the binding result is recorded as “binds”.
